One molecule from patent US20230151068A1 (FRED HUTCHINSON CANCER CENTER, published 2023) can be followed below.

For this assay, the target named is T1, TfR (Biotinylated; site and any biotin-acceptor or purification tag are not stated in the passages seen.).
T1 construct: also called biotinylated TfR ectodomain; control protein
The experiment in a line: flow cytometry, 293F cells displaying YAP (SDGF), co-incubated with biotinylated TfR ectodomain (control protein) and streptavidin-Alexa647. On the technique in general: Flow cytometry measures light scatter and fluorescence of single cells or particles in a stream.

T1 sequence (chain, as listed by the source limits assumed): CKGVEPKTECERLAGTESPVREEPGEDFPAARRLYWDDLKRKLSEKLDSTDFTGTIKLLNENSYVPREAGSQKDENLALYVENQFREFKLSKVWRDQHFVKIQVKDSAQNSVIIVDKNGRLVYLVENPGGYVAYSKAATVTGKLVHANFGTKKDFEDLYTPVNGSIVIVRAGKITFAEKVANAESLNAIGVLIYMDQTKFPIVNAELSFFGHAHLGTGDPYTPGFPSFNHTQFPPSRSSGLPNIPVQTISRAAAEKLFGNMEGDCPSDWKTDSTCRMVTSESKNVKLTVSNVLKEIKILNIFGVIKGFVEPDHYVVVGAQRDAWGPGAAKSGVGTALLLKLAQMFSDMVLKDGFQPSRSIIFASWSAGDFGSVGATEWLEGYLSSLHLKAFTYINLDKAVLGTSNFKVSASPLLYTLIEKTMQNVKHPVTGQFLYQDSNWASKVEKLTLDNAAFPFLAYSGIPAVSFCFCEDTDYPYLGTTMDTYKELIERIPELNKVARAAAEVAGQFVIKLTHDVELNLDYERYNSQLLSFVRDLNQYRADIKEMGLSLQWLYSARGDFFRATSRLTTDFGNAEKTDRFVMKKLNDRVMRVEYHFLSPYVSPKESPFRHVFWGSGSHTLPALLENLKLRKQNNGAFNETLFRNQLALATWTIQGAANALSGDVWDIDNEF

B1: SDGF-YAP (50-171), surface-tethered on HEK-293 cells (other, UniProt P46937 50-171, looked up)
chain: AGHQIVHVRGDSETDLEALFNAVMNPKTANVPQTVPMRLRKLPDSFFKPPEPKSHSRQASTDAGTAGALTPQHVRAHSSPASLQLGAVSPGTLTPTGVVSGPAATPTAQHLRQSSFEIPDDV
Take B1: the binding result is recorded as “no binding (tested: not shown on the sheet)”.
